Results from article PMC5614565.
pKd: −log10 of the molar value.

Key:
[1] = target: EGFP-tagged WRC, wild type (Sra1, Nap1, MBP-EGFP-HSPC300, MBP-Abi2(1-158), MBP-WAVE1(1-230)), Q7L576;Q9Y2A7;Q8WUW1;Q9NYB9;Q92558; test: membrane recruitment assay on supported lipid bilayers (TIRF microscopy); details: WT EGFP-WRC; parent value is Rac1 WT loaded with GMPPNP (Rac1 WT GDP bar est. 0.045); parent: est. 0.23; read off a plot
[2] = target: mCherry-(GGS)6-Rac1(1-188)-His8 (UniProt P63000); test: as above; details: mCherry-Rac1 Q61L/P29S-His8 anchored on bilayers containing 2% Ni2+-NTA-DGS lipid; parent: est. 0.72; read off a plot
[3] = target: GST-Rac1(1-188) (Q61L/P29S) (UniProt P63000); test: other; GST-dimer model, KD,1; details: complex; chains chain;chain;chain;chain;chain
[4] = target: GST-Rac1(1-188) (Q61L/P29S) (UniProt P63000); test: other; GST-dimer model, KD,2 (second WRC); details: complex; chains chain;chain;chain;chain;chain
[5] = target: GST-Rac1(1-188) (Q61L/P29S) (UniProt P63000); test: pull-down; equilibrium pull-down (EPD): 0.1 μM ΔWRC230, 0.01 to 140 μM GST-Rac1(1-188) (Q61L/P29S), Glutathione Sepharose; 20 mM HEPES pH 7, 100 mM NaCl, 5% glycerol, 2 mM MgCl2, 5 mM β-mercaptoethanol, 0.05% Triton X100; 4°C, 30 min; unbound WRC in the supernatant quantified by SDS-PAGE; fits in DynaFit

“mCherry-Rac1-His8 wild type (GMPPNP) Q61L; P29S” gave a response [1] of 0.72.

With “EGFP-tagged WRC, wild type (Sra1, Nap1, MBP-EGFP-HSPC300, MBP-Abi2(1-158), MBP-WAVE1(1-230)) (from UniProt Q7L576;Q9Y2A7;Q8WUW1;Q9NYB9;Q92558) S969F” the response [2] was 0.8.

Work on “EGFP-tagged WRC, wild type (Sra1, Nap1, MBP-EGFP-HSPC300, MBP-Abi2(1-158), MBP-WAVE1(1-230)) (from UniProt Q7L576;Q9Y2A7;Q8WUW1;Q9NYB9;Q92558) C179R” yielded a response [2] of 0.36.

In the case of “ΔWRC230 with Sra1 C179R (Sra1, Nap1, HSPC300, MBP-Abi2(1-158), MBP-WAVE1(1-230)), Q7L576 1-1253; Q9Y2A7 1-1128; Q8WUW1 1-75; Q9NYB9 1-158; Q92558 1-230”, the pKd [3] was 6.70, the pKd [4] was 6.84 and the pKd [5] was 6.58.

Substance “EGFP-tagged WRC, wild type (Sra1, Nap1, MBP-EGFP-HSPC300, MBP-Abi2(1-158), MBP-WAVE1(1-230)) (from UniProt Q7L576;Q9Y2A7;Q8WUW1;Q9NYB9;Q92558) Y967A” has a response [2] of 0.12.

“ΔWRC230 with Sra1 Y967A (Sra1, Nap1, HSPC300, MBP-Abi2(1-158), MBP-WAVE1(1-230)), Q7L576 1-1253; Q9Y2A7 1-1128; Q8WUW1 1-75; Q9NYB9 1-158; Q92558 1-230” showed a KD,A (A Site, first WRC, GST-dimer model) [5] of 11.5 µM, a KD,A (A Site, single-site model) [5] of 10.8 µM and a KD,A (A Site, two-site model) [5] of 9.6 µM. It also gave a KD,A’ (A Site of the second WRC, GST-dimer model) [5] of 0.033 µM.

With “ΔWRC230, wild type (Sra1, Nap1, HSPC300, MBP-Abi2(1-158), MBP-WAVE1(1-230)), Q7L576 1-1253; Q9Y2A7 1-1128; Q8WUW1 1-75; Q9NYB9 1-158; Q92558 1-230” the pKd [3] was 7.17, the KD,A(D) (A Site of the D Site-bound WRC, sequential two-site model) [5] was 0.262 µM and the KD,D (D Site, sequential two-site model) [5] was 0.169 µM. For the same substance, the KD,D (D Site, single-site model) [5] was 0.106 µM.
